Here are results for nine molecules from article PMC6125681, “Stability of local secondary structure determines selectivity of viral RNA chaperones”.

The target in data set [1] is T1, σNS (Avian reovirus (strain not given)) (UniProt W8NR44).
T1 sequence: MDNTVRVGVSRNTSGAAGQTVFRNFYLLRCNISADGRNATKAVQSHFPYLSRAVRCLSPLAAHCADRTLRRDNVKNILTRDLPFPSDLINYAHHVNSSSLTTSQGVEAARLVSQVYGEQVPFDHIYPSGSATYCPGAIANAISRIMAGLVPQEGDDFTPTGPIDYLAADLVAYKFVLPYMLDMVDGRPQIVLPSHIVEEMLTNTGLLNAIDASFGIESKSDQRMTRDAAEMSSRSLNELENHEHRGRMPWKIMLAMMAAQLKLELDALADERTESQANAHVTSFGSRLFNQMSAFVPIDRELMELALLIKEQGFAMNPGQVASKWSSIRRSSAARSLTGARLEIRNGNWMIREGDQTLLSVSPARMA
Briefly: fluorescence anisotropy. On the technique in general: Fluorescence polarisation rises when a labelled molecule tumbles more slowly, as on binding a larger partner.

In data set [2] the target is avian reovirus (ARV) σNS (avian reovirus). In words: native MS; nanoESI-IMS-MS of σNS apoprotein, 20 μM, 200 mM ammonium acetate pH 7.6; no RNA.
Data set [3] has the same target. The data set is described as above. The source holds these as a separate data set.
For data set [4] the target is unchanged. Briefly: native MS; nanoESI-IMS-MS of σNS–RNP complex (σNS saturated with unstructured 20mer RNA), 20 μM, 200 mM ammonium acetate pH 7.6.
The target in data set [5] is T2, NSP2 (Rotavirus (strain  in …, UniProt A2T3N6 1-317)).
T2 sequence: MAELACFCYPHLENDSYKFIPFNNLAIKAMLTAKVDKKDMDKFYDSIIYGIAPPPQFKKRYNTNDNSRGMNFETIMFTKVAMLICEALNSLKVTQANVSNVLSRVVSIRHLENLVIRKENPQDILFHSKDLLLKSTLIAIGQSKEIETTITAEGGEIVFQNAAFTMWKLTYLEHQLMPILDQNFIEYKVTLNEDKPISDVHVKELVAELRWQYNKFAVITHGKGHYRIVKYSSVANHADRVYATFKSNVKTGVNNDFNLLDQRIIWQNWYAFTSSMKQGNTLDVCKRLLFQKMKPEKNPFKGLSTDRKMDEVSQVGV
Briefly: single-pair FRET; 25 nM protein; binds folded and unfolded RNA. Particulars: protein: recombinant; chain copies: 8; Methods state the reverse; hairpin, -8.9 kcal/mol.

Data set [6] addresses T2, NSP2. Briefly: FCCS; multiple RNAs per octamer. Particulars: protein: recombinant; chain copies: 8; label: Cy3 or Cy5 (same string printed for both); unstructured; text calls the two labelled RNAs distinct non-complementary.
Data set [7] has as its target T2, NSP2. Briefly: fluorescence anisotropy; no Mg2+; one value given for all three RNAs. To be noted: protein: recombinant, chain copies: 8, label: 5' AlexaFluor488, hairpin.
The target in data set [8] is T2, NSP2. In words: fluorescence anisotropy; no Mg2+. To be noted: protein: recombinant; chain copies: 8; label: 5' AlexaFluor488; unstructured, MFE 0.
Data set [9] deals with T2, NSP2. Briefly: fluorescence anisotropy; 10 mM MgCl2. Particulars: protein: recombinant; chain copies: 8; label: 5' AlexaFluor488; unstructured, MFE 0.

As a reminder, the Kd is a measure of binding affinity in units of concentration. As a reminder, the stoichiometry N is the number of molecules, sites or subunits per partner or assembly.

Several values for one entry are separate records, joined by “and”; a condition that tells them apart may be missing. Equal entries are not always repeated.

Molecule “UCUUUGCAAACAUGCAAAGA [stable 20mer hairpin]” gave a Kd in [1] of 137 nM. In turn, CUUCUUUCGAAAUUAAGAAG [metastable 20mer] returned a Kd in data set [1] of 24 nM. For “avian reovirus (ARV) σNS (natural protein)”, the stoichiometry N in [2] is 6; in data set [3] it was 8; in data set [4] it was 8 and 6. In [1], “CUUUUCAAGACAUGCAACAA [unstructured 20mer]” had a Kd of 37 nM and a binding signal (fold Kd increase vs no Mg2+) of 1.5. AAAUCUUUGCAAACUAUCCAAUCCAUGCAAAGAUAA (structured_RNA) [dual-labelled 36mer stem-loop]: the binding result in data set [5] is “binds”. Turning to UUCCUUCUAUUUCUUCU (ssRNA) [17mer (S11-derived)], in [6], the binding result was “binds”. For the molecule UCUUUGCAAACAUGCAAAGA (structured_RNA) [stable 20mer hairpin], the Kd in data set [7] (-8.1 kcal/mol) is ~20 nM.

With CUUCUUUCGAAAUUAAGAAG (structured_RNA) [metastable 20mer], in data set [7] (-3.8 kcal/mol), the Kd was ~20 nM. For the molecule CUUUUCAAGACAUGCAACAA (ssRNA) [unstructured 20mer], the results for the Kd in [8] and in data set [9] were 20.7 ± 1.67 nM and 28 ± 1.48 nM, respectively.
